Here are results for six variants from IntAct's records for PubMed 9990021.

B1: X-linked retinitis pigmentosa GTPase regulator (Homo sapiens), Q92834-2 (parent)
chain: MREPEELMPDSGAVFTFGKSKFAENNPGKFWFKNDVPVHLSCGDEHSAVVTGNNKLYMFGSNNWGQLGLGSKSAISKPTCVKALKPEKVKLAACGRNHTLVSTEGGNVYATGGNNEGQLGLGDTEERNTFHVISFFTSEHKIKQLSAGSNTSAALTEDGRLFMWGDNSEGQIGLKNVSNVCVPQQVTIGKPVSWISCGYYHSAFVTTDGELYVFGEPENGKLGLPNQLLGNHRTPQLVSEIPEKVIQVACGGEHTVVLTENAVYTFGLGQFGQLGLGTFLFETSEPKVIENIRDQTISYISCGENHTALITDIGLMYTFGDGRHGKLGLGLENFTNHFIPTLCSNFLRFIVKLVACGGCHMVVFAAPHRGVAKEIEFDEINDTCLSVATFLPYSSLTSGNVLQRTLSARMRRRERERSPDSFSMRRTLPPIEGTLGLSACFLPNSVFPRCSERNLQESVLSEQDLMQPEEPDYLLDEMTKEAEIDNSSTVESLGETTDILNMTHIMSLNSNEKSLKLSPVQKQKKQQTIGELTQDTALTENDDSDEYEEMSEMKEGKACKQHVSQGIFMTQPATTIEAFSDEEVEIPEEKEGAEDSKGNGIEEQEVEANEENVKVHGGRKEKTEILSDDLTDKAEDHEFSKTEELKLEDVDEEINAENVESKKKTVGDDESVPTGYHSKTEGAERTNDDSSAETIEKKEKANLEERAICEYNENPKGYMLDDADSSSLEILENSETTPSKDMKKTKKIFLFKRVPSINQKIVKNNNEPLPEIKSIGDQIILKSDNKDADQNHMSQNHQNIPPTNTERRSKSCTIL

In this experiment the parent is B1. To be noted: with pde6d_mouse Pde6d.
Regarding F130C, the “effect of a mutation on the interaction” value is “disrupting interaction”.

Take G275S: the “effect of a mutation on the interaction” value is recorded as “disrupting interaction”.

On to P235S, for which the “effect of a mutation on the interaction” value is “decreasing interaction”.

Turning to C250R, the “effect of a mutation on the interaction” value is on record as “disrupting interaction”.

For the variant G215V, the “effect of a mutation on the interaction” value is reported as “disrupting interaction”.

Consider H98Q, for which the “effect of a mutation on the interaction” value is listed as “disrupting interaction”.
